From patent US20250243277A1 (AVACTA LIFE SCIENCES, published 2025)
Changes are numbered by the printed parent chain. Where two headings read alike, the source gives them in different places. Values belong to the molecule of their own block, whether it stands above or below them.

Columns and labels:
papain = papain (UniProt P00784); experiment: cell-based or functional assay
human PD-L1 on CHO cells [1] = target: T1, human PD-L1 on CHO cells (human, UniProt Q9NZQ7 19-290); experiment: cell-based or functional assay
[2] = target: T2, human PD-L1-Fc (R&D Systems) (human, UniProt Q9NZQ7 19-239); experiment: PD-L1/PD-1 competition ELISA, % inhibition: Affimer pre-incubated with huPD-L1-Fc, then loaded on plate-coated human PD-1-Fc (blocked ligand). Column head on the sheet reads 'EC50nM'; the text calls these values IC50
T2 construct: Bought from R&D Systems; Biotinylated in-house for the phage selection; also called huPD-L1-Fc; human PD-L1-Fc antigen; not shown: Fc part of the bought fusion
Protocol: (§1) The competitive inhibition of AFFIMER® multimers was evaluated by enzyme linked immunosorbent assay (ELISA). Human PD-1-Fc (R&D Systems) was coated at 0.5 μg/ml on the plate. Plates were washed two times with […] of washing buffer (PBS, Tween 20 0.1%) with a plate washer and saturated with Casein 5% (Sigma) in PBS for 90 minutes at room temperature (25±1° C.). Plates were subsequently washed. AFFIMER® polypeptides and controls (human PD-1-Fc; R&D Systems or blank) were then diluted in duplicate, and preincubated with huPD-L1-Fc (R&D Systems) at a predefined concentration equivalent to the EC₈₀ for 30 minutes then loaded on the plate for 90 minutes at room temperature (25±1° C.). Plates were washed 3 times. Biotinylated polyclonal antibody anti-human PD-L1 (R&D Systems) was then diluted in dilution buffer and incubated 90 minutes at room temperature (25±1° C.). Plates were washed 3 times and Streptavidin HRP was incubated for 30 minutes at room temperature (25±1° C.). Plates were washed and the substrate (TMB; Pierce Thermo-Scientific) added to the plate for 10 minutes. The reaction was stopped using an acidic solution and plates were read at absorbance 450-630 nm. The IC₅₀ was then calculated using the interpolated non-linear four-parameter standard curve.

human PD-L1 on CHO cells [3] = target: T1, human PD-L1 on CHO cells; experiment: cell-based or functional assay; remark: listed apart in the source
[4] = target: T2, human PD-L1-Fc (R&D Systems); experiment: SPR (Biacore T200): human PD-L1-Fc amine-coupled on a CM5 chip, Affimer monomer titrated as analyte (500 s association, 1000 s dissociation), 1:1 Langmuir fit
Protocol: BIACORE™ T200 binding kinetic analysis was performed on monomer AFFIMER® clones with running buffer HBS-EP+ (Cytiva) and a series S sensor CM5 chip immobilized with human PD-L1-Fc (R&D Systems) in 10 mM Sodium acetate pH4.0 μsing amine coupling reagents (Cytiva). A concentration titration of AFFIMER® monomer was run as analyte with an association time of 150 seconds, followed by a dissociation time of 300 seconds at a flow rate of 30 μl/min. For Clone 80, the association time was increased to 500 seconds and 1000 seconds dissociation time. The human PD-L1-Fc immobilized surface was regenerated with 3-3.5 mM NaOH solution (Cytiva) for 20-30 seconds at 20 μl/min flow rate. The kinetic data was blank subtracted and fit to a 1:1 Langmuir binding model (BIAcore evaluation software; Cytiva) to calculate an apparent KD value.

[5] = target: T2, human PD-L1-Fc (R&D Systems); experiment: PD-1/PD-L1 competition ELISA, % inhibition: Affimer pre-incubated with huPD-L1-Fc, then loaded on plate-coated human PD-1-Fc (blocked ligand)
Protocol: as §1, with “curve. […]” for “curve.”

human PD-L1 on CHO cells [6] = target: T1, human PD-L1 on CHO cells; experiment: flow cytometry histogram, live-gated hu-PD-L1 CHO cells, Affimer at 100 nM
Protocol: Human PD-L1 CHO cells having a cell surface over expressing human PD-L1 or CHO-negative cells were plated at 50,000 cells per well in a round bottom tissue culture plate. AFFIMER® clones were titrated from 700 nM or monoclonal antibody (mAb) controls titrated from 10 nM in cell staining buffer (PBS, 1% BSA+2 mM EDTA+0.05% Sodium Azide buffer) and incubated for 1 hour. After two washes with staining buffer, AFFIMER® polypeptides were detected with an anti-cystatin antibody. After a further two washes, AF488-conjugated anti-goat antibody (to detect AFFIMER® polypeptides) or AF488-conjugated anti human IgG1 antibody (to detect mAb controls) were incubated for 40 minutes followed by an additional wash step. Viability dye (Zombie Aqua reagent, Biolegend) was added and the plates were incubated for 10 min. After a final wash, cells were fixed and the data acquired using a multiparameter flow cytometer (Guava 12HT, Luminex Corp).

[7] = target: T2, human PD-L1-Fc (R&D Systems); experiment: PD-1/PD-L1 competitive ELISA, average n = 2; competitor PD-1-Fc coated
Protocol: as §1
Analysis identified three mutants which no longer bind target antigen, three mutants which have reduced binding and twelve (12) mutants which retaining binding to target antigen. […] The mutant AFFIMER® clones which retained binding to PD-L1 were assessed in both a competition ELISA (as described in Example 4) and the PD1:PD-L1 blockade cell-based Promega assay (as described in Example 5).

[8] = target: T2, human PD-L1-Fc (R&D Systems); experiment: SPR (Biacore); huPD-L1-Fc captured on Protein A chip, Affimer as analyte 0.125 to 2 nM; monomer, huPD-L1-Fc captured on Protein A chip
Protocol: (§2) Secreted AFFIMER® clones were purified from supernatant using Ni Sepharose Excel resin (Cytiva) as described in Example 2 and run-on SEC-HPLC to assess their purity and molecular weight (FIG. 11). BIACORE™ was run using a sensor chip Protein A (Cytiva) capturing huPD-L1-Fc (R&D System), and AFFIMER® clones were run in solution as analyte increasing from 0.125 to 2 nM titration and a dissociation time of 2000 seconds. Regeneration of the antigen captured on the chip was performed using a 10 mM glycine pH1.5 solution. […] Avidity was further shown in both the PD-L1 binding ELISA and the Promega cell-based assay, with the ILF dimer blocking the PD-L1:PD1 interaction more strongly than a mammalian produced monomer (FIGS. 13-14).

[9] = target: T2, human PD-L1-Fc (R&D Systems); experiment: SPR (Biacore): huPD-L1-Fc captured on a Protein A sensor chip, HEK-expressed Affimer as analyte rising from 0.125 to 2 nM, 2000 s dissociation
Protocol: as §2

[10] = target: T2, human PD-L1-Fc (R&D Systems); experiment: PD-L1 binding ELISA (direct binding, absorbance 450nm - 630nm rises with the Affimer concentration). Column head on the sheet reads 'IC50 nM' although the curve is a half-maximal binding curve; the text does not name the PD-L1 reagent on the plate
[11] = target: T2, human PD-L1-Fc (R&D Systems); experiment: SPR (Biacore 8K), binding to PD-L1-Fc
human PD-L1 on CHO cells [12] = target: T1, human PD-L1 on CHO cells; experiment: cell-based or functional assay; remark: listed apart in the source
human PD-L1 on CHO cells [13] = target: T1, human PD-L1 on CHO cells; experiment: cell-based or functional assay; remark: listed apart in the source
human PD-L1 on CHO cells [14] = target: T1, human PD-L1 on CHO cells; experiment: cell-based or functional assay; remark: listed apart in the source
human PD-L1 on CHO cells [15] = target: T1, human PD-L1 on CHO cells; experiment: cell-based or functional assay; remark: listed apart in the source
human PD-L1 on CHO cells [16] = target: T1, human PD-L1 on CHO cells; experiment: cell-based or functional assay; remark: listed apart in the source
[17] = target: T2, human PD-L1-Fc (R&D Systems); experiment: SPR (Biacore); huPD-L1-Fc captured on Protein A chip, Affimer as analyte 0.125 to 2 nM; ILF homodimer (avidity), huPD-L1-Fc captured on Protein A chip
Protocol: as §2

T1 sequence (Q9NZQ7 19-290): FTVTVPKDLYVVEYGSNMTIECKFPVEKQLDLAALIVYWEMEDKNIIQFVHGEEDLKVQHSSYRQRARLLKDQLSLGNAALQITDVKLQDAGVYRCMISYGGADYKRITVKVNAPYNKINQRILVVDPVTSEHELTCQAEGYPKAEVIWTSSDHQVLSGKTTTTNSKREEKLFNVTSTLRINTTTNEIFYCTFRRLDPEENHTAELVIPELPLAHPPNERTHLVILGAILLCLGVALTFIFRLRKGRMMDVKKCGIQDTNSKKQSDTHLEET
T2 sequence (Q9NZQ7 19-239 limits assumed): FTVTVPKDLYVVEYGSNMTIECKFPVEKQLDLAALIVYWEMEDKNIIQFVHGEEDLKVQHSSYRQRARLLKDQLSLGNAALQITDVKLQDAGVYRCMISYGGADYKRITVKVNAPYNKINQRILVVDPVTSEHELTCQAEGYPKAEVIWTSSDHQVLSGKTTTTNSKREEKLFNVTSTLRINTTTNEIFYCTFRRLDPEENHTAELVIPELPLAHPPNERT
Chain of papain (P00784 134-345 limits assumed): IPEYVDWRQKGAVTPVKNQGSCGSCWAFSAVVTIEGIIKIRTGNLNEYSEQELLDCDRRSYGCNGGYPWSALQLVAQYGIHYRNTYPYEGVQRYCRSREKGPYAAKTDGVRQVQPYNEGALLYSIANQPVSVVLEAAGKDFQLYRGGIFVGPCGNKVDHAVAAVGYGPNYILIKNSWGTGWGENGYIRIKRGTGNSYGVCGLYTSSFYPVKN

Molecule: Stefin A (from UniProt P01040 1-98)
IC50, inhibition of papain cleavage of Z-Phe-Arg-AMC (papain): 3.8 nM

B1: Clone 80 (designed binder)
chain: MIPGGLSEAKPATPEIQEIVDKVKPQLEEKTGETYGKLEAVQYKTQVVRRKHFPQWPGTNYYIKVRAGDNKYMHLKVFKSLDLQPREVFQEDLVLTGYQVDKNKDDELTGF
notes: type III Affimer monomer made in E. coli; His-tagged; also called Clone 80 parent control molecule
EC50 (read off the curve); Promega PD-1/PD-L1 blockade bioassay, fold of induction (human PD-L1 on CHO cells [1]): ~80 nM
EC50 [2]: 0.538 nM
IC50, PD-1/PD-L1 blockade Bioassay (Promega) (human PD-L1 on CHO cells [3]): 30 nM
Kd [4]: 0.568 nM
koff [4]: 0.00163 s⁻¹
kon [4]: 2.88e+06 M⁻¹ s⁻¹
IC50 [5]: 0.19 nM
% (cells in the positive gate) (human PD-L1 on CHO cells [6]): 98.9%
MFI (human PD-L1 on CHO cells [6]): 1330 MFI
IC50 [7]: 2.6 nM

B3: Clone 80 K51A (designed binder)
chain: B1 chain with K51A
notes: alanine mutant of Clone 80 made in E. coli
Kd [11]: 0.66 nM
EC50 (read off the curve); Promega PD-1/PD-L1 blockade bioassay, fold of induction (human PD-L1 on CHO cells [12]): ~200 nM
IC50 [7]: 3.35 nM

B7: Clone 80 R86A (designed binder)
chain: B1 chain with R86A
notes: as for B3
Kd [11]: 4.02 nM
EC50 (read off the curve); Promega PD-1/PD-L1 blockade bioassay, fold of induction (human PD-L1 on CHO cells [15]): ~70 nM
IC50 [7]: 2.33 nM

B9: Clone 80 ILF (designed binder)
chain: MIPGGLSEAKPATPEIQEIVDKVKPQLEEKTGETYGKLEAVQYKTQVVRRKHFPQWPGTNYYIKVRAGDNKYMHLKVFKSLDLQPREVFQEDLVLTGYQVDKNKDDELTGFAEAAAKEAAAKEAAAKEAAAKEAAAKEAAAKMIPGGLSEAKPATPEIQEIVDKVKPQLEEKTGETYGKLEAVQYKTQVVRRKHFPQWPGTNYYIKVRAGDNKYMHLKVFKSLDLQPREVFQEDLVLTGYQVDKNKDDELTGF
notes: Two Clone 80 units in one chain joined by the rigid linker A(EAAAK)6; also called in-line fusion (ILF) homodimer; Dimer ILF format
Kd [17]: 0.0103 nM
koff [9]: 4.56e-05 s⁻¹
kon [9]: 4.44e+06 M⁻¹ s⁻¹
IC50 [10]: 0.05 nM

B10: Clone 255 (designed binder)
chain: MIPRGLSEAKPATPEIQEIVDKVKPQLEEKTNETYGKLEAVQYKTQVLAREGRQDWVLSTNYYIKVRAGDNKYMHLKVFNGPWVPFPHQQLADRVLTGYQVDKNKDDELTGF
notes: type I Affimer monomer
EC50 [2]: 0.205 nM
IC50, PD-1/PD-L1 blockade Bioassay (Promega) (human PD-L1 on CHO cells [3]): 30 nM
% (cells in the positive gate) (human PD-L1 on CHO cells [6]): 98%
MFI (human PD-L1 on CHO cells [6]): 1010 MFI

Further lines, results first:

Kd [8]: 0.54 nM
koff [9]: 0.0014 s⁻¹
kon [9]: 2.58e+06 M⁻¹ s⁻¹
IC50 [10]: 0.26 nM
B2: Clone 80 monomer (mammalian, HEK-expressed) (designed binder)
chain: B1 chain
notes: also called mammalian produced monomer; mammalian expressed AFFIMER Clone 80 monomer

Kd [11]: 0.97 nM
EC50 (read off the curve); Promega PD-1/PD-L1 blockade bioassay, fold of induction (human PD-L1 on CHO cells [13]): ~100 nM
IC50 [7]: 2.23 nM
B4: Clone 80 Q90A (designed binder)
chain: B1 chain with Q90A
notes: as for B3

Kd [11]: 2 nM
EC50 (read off the curve); Promega PD-1/PD-L1 blockade bioassay, fold of induction (human PD-L1 on CHO cells [1]): ~200 nM
IC50 [7]: 4.83 nM
B5: Clone 80 R49A (designed binder)
chain: B1 chain with R49A
notes: as for B3

Kd [11]: 1.96 nM
EC50 (read off the curve); Promega PD-1/PD-L1 blockade bioassay, fold of induction (human PD-L1 on CHO cells [14]): ~100 nM
IC50 [7]: 2.56 nM
B6: Clone 80 V88A (designed binder)
chain: B1 chain with V88A
notes: as for B3

Kd [11]: 0.61 nM
EC50 (read off the curve); Promega PD-1/PD-L1 blockade bioassay, fold of induction (human PD-L1 on CHO cells [16]): ~100 nM
IC50 [7]: 3.83 nM
B8: Clone 80 E87A (designed binder)
chain: B1 chain with E87A
notes: as for B3
